Data taken from US20210275498A1, “IMIDAZOLYL ETHANAMIDE PENTANDIOIC ACID FOR USE IN THERAPY OF SYMPTOMS RELATED TO EXPOSURE TO LETHAL RADIATION” (priority 2018, published 2021).

Experiments:
Type in all cases: in vivo
[1] = system: C57BL/6 mice; assay: Mortality / survival to Day 30 after whole-body irradiation (5.8 Gy or 6.0 Gy); conditions: Group 6 GL (SCx1): 0.34 mg/kg SC SID Day 1, 2, 3, therapeutic, 5.8 Gy
Description: Based on a previously reported study (Williams et al. 2010, Plett et al. 2012, Chua et al. 2014, Singh et al., 2015), the mouse model was developed to investigate LD25 and LD50. The whole-body irradiation and selected dose serve as a translational in vivo model mimicking possible radiation exposure to humans following a nuclear incident.
Animals (C57BL/6 mice) were supplied by Jackson Laboratories (Bar Harbor, Me. facility). Animals were maintained at SNBL USA (Everett, Wash. facility) as stock prior to study assignment and were screened for health by veterinary staff prior to use on study. 205 animals were assigned to treatment groups.
Oral application of Myelo001 would be conducive for nuclear or other radiation incidents and was chosen for this study. […] The human equivalent dose is estimated to be 4 mg/kg based on allometric calculations.
Based on the ARS Scoring SNBL SOP, if the sum of the three parameter scores totaled 8 or higher, the animal was considered moribund and was euthanized with an unscheduled necropsy performed according to the moribund animal SOP.
Cageside mortality checks were conducted per SOP, twice daily after Day −3. Morning and afternoon checks began 2 to 3 hours after the completion of the respective ARS scorings. Individual assessments were only documented for apparently moribund animals by re-scoring, or for found dead animals by removal.
Survival data were summarized descriptively and graphically using the Kaplan-Meier method. Further, death rates were tabulated by treatment. The equality of two or more survivor curves was tested with log rank tests. In addition, Cox-regression models were used to estimate hazard ratios, p-values and 95% confidence intervals (95% CI).
The focus of the survival analysis is irradiation related death between irradiation on Day 0 and Day 30. Thus, the scheduled necropsies on Day 7 and Day 14 or deaths unrelated to radiation (Animals 2041, 9012 and 9021) were considered as censored events.

[2] = system: C57BL/6 mice; assay: Body weight after whole-body irradiation (response profile analysis); conditions: Group 6 GL (SCx1): 0.34 mg/kg SC SID Day 1, 2, 3, therapeutic, 5.8 Gy
Description: Body weights were assessed twice during acclimation (including Day −3), once prior to irradiation (Day 0), and every 3 days thereafter. Terminal body weights were also collected, with the exception of Animal 4012.
The longitudinal data were analyzed taking into account the mean weight over time in each group and the covariance among the repeated measures by response profile analysis (Fitzmaurice et al., Wiley 2004, p 103-140.). The analysis was specified as a regression model with unstructured covariance to account for the correlation among repeated body weights of the same mouse and indicator variables for treatment groups and time, where the vehicle treatment was used as the reference group and Day 0 was taken as a reference for time.
The response profile analyses provide the following regression coefficients estimated by the restricted maximum likelihood (REML) method: intercept—mean body weight in the reference groups VL (POx1);2 and VH (POx1);8 at Day 0 treatment—difference between the mean body weight in the treatment groups and the vehicle groups at Day 0 time—body weight change from baseline in the reference groups treatment×time—treatment effect at each day estimated by comparison of change from baseline in the treatment groups and control groups For all regression coefficients, p-values and 95%-confidence intervals are provided. This method provides interpretable estimates, is valid if treatment groups differ at baseline, allows for arbitrary patterns in the mean body weight over time (no specific time trend e. g. linear curve assumed) and arbitrary patterns in the covariance. The analysis has certain robustness, as potential risks due to model misspecification are minimal.

[3] = system: C57BL/6 mice; assay: Peripheral hematology after whole-body irradiation; conditions: Group 6 GL (SCx1): 0.34 mg/kg SC SID Day 1, 2, 3, therapeutic, 5.8 Gy
Description: The primary outcome of this study was mortality and secondary outcomes were changes in hematology (peripheral and bone marrow). The endpoints were chosen to follow Animal Rule requirements that state that animal study endpoint be clearly related to the clinical benefit (generally, the enhancement of survival or prevention of major morbidity). The secondary endpoints were chosen to potentially contribute to an understanding of the disease or condition and a characterization of the treatment effect.

[4] = system: C57BL/6 mice; assay: Gross pathology and histopathology (testes degeneration, bone marrow cellularity) after whole-body irradiation; design: key to Supporting variable: Bone marrow celluarity (trend) / Supporting variable: Testes degradation (trend): positive trend (descriptively) +; negative trend (descriptively) −; no difference (descriptively) 0
[5] = Day 14 necropsy, Group 6: 5.8 Gy, subcutaneous, 0.34 mg/kg, Days 1, 2 and 3
[6] = Group 6 GL (SCx1): 0.34 mg/kg SC SID Day 1, 2, 3, therapeutic, 5.8 Gy

B1: G-CSF: Neupogen (Filgrastim; Granulocyte colony-stimulating factor; G-CSF), positive control article, Amgen (protein, UniProt P09919 31-207, looked up)
Granulocyte …: TPLGPASSLPQSFLLKCLEQVRKIQGDGAALQEKLVSECATYKLCHPEELVLLGHSLGIPWAPLSSCPSQALQLAGCLSQLHSGLFLYQGLLQALEGISPELGPTLDTLQLDVADFATTIWQQMEELGMAPALQPTQGAMPAFASAFQRRAGGVLVASHLQSFLEVSYRVLRHLAQP
modifications: filgrastim
notes: Neupogen (Filgrastim; Granulocyte colony-stimulating factor; G-CSF), positive control article, Amgen
For B1, the “Dead (irradiation related deaths)” value [1] was 1, the “Irradiation related death rate, Rate (per 100 Days)” value [1] was 0.42 per 100 Days and the “Survival after 30 days (Kaplan-Meier estimate)” value [1] was 0.90. For the same molecule, the “Time at Risk” value [1] was 237 days, the “Time to 10% death, Time” value [1] was 12 days and the “Hazard ratio (Cox regression, risk of radiation induced death)” value ([1]; reference group VL (POx1), 2) was 0.72. The “Quantity ratio of survival probability (dose reduction factor, DRF), day 30, relative to control group” value ([1]; vs VL (POx1), 2) was 1.1, the “Body weight: Estimate, change relative to vehicle group 2” value ([2]; Day 0) was -0.5 g and the “Body weight: Estimate, change relative to vehicle group 2” value ([2]; Day 3) was 0.3 g. The “Body weight: Estimate, change relative to vehicle group 2” value ([2]; Day 9) was -0.4 g, the “Body weight: Estimate, change relative to vehicle group 2” value ([2]; Day 15) was 0.4 g and the “Body weight: Estimate, change relative to vehicle group 2” value ([2]; Day 21) was 3.3 g. The “Body weight: Estimate, change relative to vehicle group 2” value ([2]; Day 30) was 0.5 g, the “hemoglobin and hematocrit, red blood cells compared to control group 2” value ([3]; Day 14) was “increased” and the “median WBC and neutrophil count compared to control Group 2” value ([3]; Day 30) was “trend in the increase”. The “gross pathology: findings not typical of acute radiation syndrome” value [4, 5] was “cysts in spleen were observed”, the “gross pathology: lesions typical of acute radiation syndrome (red discoloration of organs)” value [4, 5] was “no red discoloration in the brain, testes” and the “bone marrow cellularity decrease, category” value ([4]; Day 30, insignificant, Group 6 GL (SCx1): 0.34 mg/kg SC SID Day 1, 2, 3, therapeutic, 5.8 Gy) was “minimal category in sternum and no marked category in femur bone marrow”. For the same molecule, the “Supporting variable: Bone marrow celluarity (trend)” value [4, 6] was “+” and the “Supporting variable: Testes degradation (trend)” value [4, 6] was “+”.
